For assay [1], the target named is L834R EGFR tagged with mTurquoise at the C-terminus, in plasma membrane-derived vesicles from transfected CHO cells (human) (UniProt P00533). As to the kind of experiment: cell-based or functional assay.
Assay [2] addresses human EGFR tagged with the fluorescent protein mTurquoise at the C-terminus (wild-type), in plasma membrane-derived vesicles from transfected CHO cells (human) (UniProt P00533). As to the kind of experiment: cell-based or functional assay.

Epiregulin (1195EP025 CF, R&D Systems), sequence (O14944 63-108 limits assumed): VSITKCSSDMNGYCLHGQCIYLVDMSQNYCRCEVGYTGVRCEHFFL

On to “Epiregulin (1195EP025 CF, R&D Systems) (from UniProt O14944 63-108) (ligand)”, for which, in assay [1], the EC50 of Y1068 phosphorylation per EGFR molecule amounted to 5.8 nM, the EC50 of Y1173 phosphorylation per EGFR molecule turned out to be 0.7 nM, the Etop of Y1068 phosphorylation per EGFR molecule came to 0.2 and the Etop of Y1173 phosphorylation per EGFR molecule came out at 0.09. Moreover, in assay [2], the EC50 of Y1068 phosphorylation per EGFR molecule is 19.5 nM, the EC50 of Y1173 phosphorylation per EGFR molecule amounted to 16.2 nM, the Etop of Y1068 phosphorylation per EGFR molecule turned out to be 0.43 and the Etop of Y1173 phosphorylation per EGFR molecule worked out at 0.16. In addition, the βlig (Y1068 vs Y1173), lig vs rho-mEGF in assay [2] is -0.23.

In assay [1], “TGFα (239A100, R&D Systems) (from UniProt P01135 40-89) (ligand)” yielded an EC50 of Y1068 phosphorylation per EGFR molecule of 3.2 nM, an EC50 of Y1173 phosphorylation per EGFR molecule of 0.3 nM, an Etop of Y1068 phosphorylation per EGFR molecule of 0.17 and an Etop of Y1173 phosphorylation per EGFR molecule of 0.12. Further, in assay [2], the EC50 of Y1068 phosphorylation per EGFR molecule is 3.4 nM, the EC50 of Y1173 phosphorylation per EGFR molecule was 5.2 nM, the Etop of Y1068 phosphorylation per EGFR molecule came to 0.59 and the Etop of Y1173 phosphorylation per EGFR molecule came to 0.17. The same substance returned a βlig (Y1068 vs Y1173), lig vs rho-mEGF in assay [2] of 0.13.
